Measurements published in the supplement of paper PMC10724198.
± gives the standard deviation of the averaged measurements.

Test system: Saccharomyces cerevisiae
Assay: protein stability index of tFT-peptide fusion (C-terminal peptide) (PSI (0-1 scale)); higher = more stable (slower turnover)
Conditions: genetic background: wild type; temperature: 30 C
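Also: PSI is a weighted mean of sequencing reads over stability bins, variants kept only with over 10 reads, mCherry proximal and sfGFP distal, peptide attached via GGGS linker.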

Sequence	protein stability index
PPLPPPRRSSPP	0.705 ± 0.02
INVKRSNAQRKG	0.754 ± 0.058
PPPPPPPPAVVA	0.569 ± 0.028
TKKIKTDTEENN	0.701 ± 0.043
SPPPLPSPSPPP	0.687 ± 0.044
QGDDNVVGAMNI	0.628 ± 0.089
GAVWLLFCGGVG	0.555 ± 0.024
PVYSIARLVPGV	0.693 ± 0.029
GLYDGSRLVKLE	0.736 ± 0.039
YRSEEFSGESGW	0.769 ± 0.11
RPLLPYHPTRFD	0.721 ± 0.048
FSPSFGSLLVIC	0.556 ± 0.02
THVPPSPIPPIM	0.675 ± 0.0099
PRPLPTGRFPPP	0.669 ± 0.028
FNGAISESGLPT	0.664 ± 0.053
SPLPYTPPLRAF	0.5238 ± 0.0029
GVGRPSDGPFRA	0.666 ± 0.047
QWPNPEVLVRST	0.70875 ± 0.00048
GDKKYRYGNKVF	0.737 ± 0.086
SRRMFCACYVLS	0.585 ± 0.031
FASLVSPWFDLV	0.716 ± 0.13
AFLLPYTSLLLT	0.516 ± 0.026
SLPLLSLPLLDF	0.535 ± 0.02
AGRVGVRGVVGG	0.748 ± 0.1
EVFGLWQGCFVW	0.728 ± 0.058
RGLIVGMGAGMV	0.671 ± 0.015

Sequence	protein stability index
AFYLYLSSTSRF	0.662 ± 0.0086
PIYQTYSRHSYL	0.683 ± 0.0089
RGLNIPRLSCRY	0.748 ± 0.008
LTTMSPGLLRRP	0.639 ± 0.065
LRGLLWFSRVGS	0.618 ± 0.011
SPPPRHLLSPRH	0.697 ± 0.0077
SWSAVPHSPLMP	0.823 ± 0.068
EDVEGVWVKGCE	0.725 ± 0.17
FQCLPHGFYFGA	0.661 ± 0.0098
ELVSFPIGGMGS	0.671 ± 0.056
TSSTPNALARIP	0.71 ± 0.16
QPYTPHTAFPAQ	0.696 ± 0.011
LRGIGVSWWKGL	0.583 ± 0.023
LNGRYGGFGHRC	0.7009 ± 0.007
KSSSVRQGWEGC	0.728 ± 0.081
LPTYPPTLPVPS	0.638 ± 0.04
NRTRFLSLDTRP	0.719 ± 0.023
GADTSRSYRIGL	0.757 ± 0.0085
QGKRQEEGERER	0.68 ± 0.052
QDRATRPSHRTQ	0.684 ± 0.03
VVQEIGGSVRRE	0.6814 ± 0.0035
PNCTLVDSCWSI	0.699 ± 0.022
VTCADEYYHSRR	0.686 ± 0.03
LAVVGGVEKKYH	0.676 ± 0.055
FSSAINSFAFQP	0.683 ± 0.026
SFPRPPSSPSPL	0.714 ± 0.021

Sequence	protein stability index
GRGRVGGGGVAV	0.682 ± 0.042
CPTLTCPRLPSP	0.684 ± 0.11
FCLSPGYHSQLC	0.692 ± 0.023
THPLPAPAPLRP	0.762 ± 0.027
FYRPNLLNAGRL	0.715 ± 0.023
QLCNQHCKMISD	0.662 ± 0.0082
QKKKHRTTGKTT	0.655 ± 0.035
IKIILLEKQGSK	0.697 ± 0.033
PPPSQPTSPPPP	0.732 ± 0.067
LALLGPCPPPIH	0.741 ± 0.083
TVAVCPKIDYSV	0.667 ± 0.0085
PHAPQSPGWLHG	0.7 ± 0.028
RWCVGFRLCHDS	0.636 ± 0.019
PPPAPSSPVLVP	0.686 ± 0.037
TPLSDQLVPFGC	0.708 ± 0.082
LWKVVAPRDESP	0.67 ± 0.023
SLMCFDLSTFLG	0.634 ± 0.08
SPPPHSTPSSTG	0.712 ± 0.054
YLVHEIGDMTYM	0.739 ± 0.079
PAPPPRRPPAPP	0.689 ± 0.017
YQCESDLFLVGV	0.642 ± 0.041
PTPTGPGSTSPP	0.662 ± 0.046
RLLSGLAHRATR	0.672 ± 0.032
ARATPLWDLMPP	0.615 ± 0.094
KSSNYSTEDVKI	0.697 ± 0.014
VLSLHPRRATLL	0.615 ± 0.03

Sequence	protein stability index
LSCLIPLPAPPL	0.662 ± 0.052
CCAVLSSMSSFD	0.668 ± 0.053
EVDSTLAPHGHP	0.866 ± 0.041
SPRRPPQHPTLL	0.65 ± 0.016
FSSHGFSSFLLL	0.691 ± 0.084
FSLGPSPLRPHA	0.611 ± 0.086
RGEMGLAPTGGD	0.651 ± 0.044
GRSIKGLLYQSL	0.681 ± 0.025
VGRWVLEARGVV	0.715 ± 0.031
PPPLPSIPPFVL	0.708 ± 0.094
GGSWGVGGVFVR	0.658 ± 0.03
SRKLRKSLFKKS	0.689 ± 0.045
VYCIEFNRQWDA	0.693 ± 0.048
VFLLSPLLVPRD	0.647 ± 0.11
RGEHKDYFYVMT	0.651 ± 0.0076
SPPHPPPRPPLL	0.733 ± 0.041
PPPAPAPPLTSS	0.71 ± 0.023
RCALATTNHPRS	0.718 ± 0.056
SFCHWHLFPPRS	0.711 ± 0.041
LPPRLPLSLDVL	0.675 ± 0.086
PPLTRPPTPVPP	0.6626 ± 0.0048
PRYPLLPAHTLI	0.705 ± 0.029
HLTVSRIRLISK	0.658 ± 0.079
CCLSVSSHLPHS	0.7096 ± 0.00068
RRNLSVSKRKWP	0.689 ± 0.014
HAVRQNDTYKHG	0.74 ± 0.087

Sequence	protein stability index
GVGWGDVWGCGE	0.741 ± 0.038
LRFVTAGEFEMK	0.635 ± 0.061
AYLGFYLLPYSS	0.717 ± 0.13
TDPKLTRTHENE	0.674 ± 0.014
DNSDIKKGARRI	0.707 ± 0.014
KTKKQEKNNKSK	0.685 ± 0.029
TELCPPDTPTGD	0.6921 ± 0.0016
QIFPLRLTWSRR	0.642 ± 0.029
NSTTNVKTQHTL	0.731 ± 0.023
PPPRPPSPPPPP	0.672 ± 0.051
TKKETRDKKVER	0.721 ± 0.0086
VLGFGGVVLFFL	0.642 ± 0.06
PPSHSPRPLSFL	0.653 ± 0.08
VGFGTGGAVGVE	0.687 ± 0.041
CGRGCTRGVNLG	0.689 ± 0.069
CLLIRAQRNALW	0.64 ± 0.036
PPSPPPTTPSPP	0.656 ± 0.035
VHFISPACSPPT	0.673 ± 0.058
ADEGRGVGGVGG	0.699 ± 0.061
TYTCRQVSCNAL	0.681 ± 0.012
TNSGLGTGRRSA	0.768 ± 0.02
CRGRWVAWSMGI	0.7221 ± 0.0019
PRERADPSLPVK	0.663 ± 0.035
NRHGRALPSLEA	0.644 ± 0.014
KSPDSLDIRFHT	0.714 ± 0.13
PPAPPAFPRFGT	0.703 ± 0.0051

Sequence	protein stability index
PPSLTPPFSPLL	0.703 ± 0.027
ILVGPTDFLPLE	0.651 ± 0.016
IRNSDNNKNHPR	0.693 ± 0.042
RVQELEDGCAAE	0.658 ± 0.024
PGYFGHVKLSCS	0.646 ± 0.023
GFSNKKNVPLTR	0.568 ± 0.066
RITRVRNKEQSK	0.692 ± 0.016
LQKRKQMRKIKE	0.646 ± 0.019
RLRCRRPKPRRC	0.682 ± 0.035
VRQLRGPWMEYP	0.682 ± 0.076
FSVFFDFIIARF	0.632 ± 0.067
GRSKKGTISMNS	0.67 ± 0.0077
SLTAPPNLASPW	0.705 ± 0.089
GERGGKGHEQGL	0.623 ± 0.043
RDFCLGFANTVC	0.642 ± 0.028
PRRSSSPPLLSP	0.784 ± 0.0088
LTRLETSNITAI	0.679 ± 0.041
FVSFFPFPFLLL	0.482 ± 0.045
PLFHLYRSSFPF	0.721 ± 0.029
RIGYGEGWKKGG	0.695 ± 0.067
DRSRSPCPCSSP	0.6898 ± 0.0022
GRRFWFSNHYNC	0.628 ± 0.091
EKGRKKTYGDEK	0.669 ± 0.02
ICSQLVVAWEGV	0.714
SPPPPPPAPPPP	0.664 ± 0.042
LSSFHCIVTVKD	0.652 ± 0.028

Sequence	protein stability index
FGESPWARVGGG	0.5749 ± 0.005
PLFPRPFPPPRS	0.717 ± 0.0091
RISGVEKPLLRV	0.663 ± 0.015
GSRALYCIVPRF	0.661 ± 0.053
PLPPAARPPSAL	0.729 ± 0.015
VGGKSVVRAESS	0.645 ± 0.013
KTLVRSFSIIEG	0.657 ± 0.026
GRSGACGWVGFG	0.7238 ± 0.0013
RTEATFKTTPVG	0.687 ± 0.013
PPPHPPPPAPPY	0.735 ± 0.019
PTLWRSSVRHVW	0.714 ± 0.066
TEGKPQVDPFDH	0.704 ± 0.076
GGGGGERGRGGS	0.708 ± 0.02
LSHPPPPPSSAT	0.716 ± 0.027
YGLAGFLWGCGE	0.799 ± 0.051
PPPAPPPCAPTP	0.713 ± 0.043
ARIVEQTLCTKS	0.679 ± 0.057
KCSKGSQGECHV	0.671 ± 0.05
NYLLYSRRSVRV	0.532 ± 0.04
KGSWCSPRGELR	0.6552 ± 0.0059
GTETFHDASIGI	0.653 ± 0.016
RQGHKRVKISGM	0.599 ± 0.091
GGVWFSCSSAFS	0.871 ± 0.075
RGPKDNGGSETS	0.713 ± 0.078
RPPPPPPPRFPP	0.706 ± 0.041
TRRPTPPSRASL	0.718 ± 0.049

Sequence	protein stability index
EGDTPFKNRVKF	0.716 ± 0.061
VIAEHCSKQGLI	0.639 ± 0.018
KPSAKRRNLFKL	0.699 ± 0.15
AVWLVVRGVRGR	0.679 ± 0.034
GPGAVTALGYGR	0.668 ± 0.015
LLPPPHHANHTA	0.6915 ± 0.0027
ASRRASLSLRGP	0.73 ± 0.022
SCSLGIRSFFSL	0.7 ± 0.021
PFLLPPLPPGPL	0.706 ± 0.062
PPRPPPAPPPLP	0.642 ± 0.0021
CFGSRMGVVGFC	0.726 ± 0.065
CPVSWRPLCTVS	0.6177 ± 0.0054
LKLHDSNESASR	0.651 ± 0.03
PPYPLLLRLPPP	0.618 ± 0.066
CPPGFPRPSSPH	0.689 ± 0.028
GPFHSGSASRSA	0.653 ± 0.047
SLVLRPTGILLI	0.536 ± 0.019
GIYFARRVVDFG	0.65 ± 0.011
PPRPRPRPLSPP	0.65 ± 0.039
RGCCSVAFRCVV	0.712 ± 0.066
